Data reported in patent publication US20120214741.

Target: VDAC of isolated rat mitochondria (liver, brain) (UniProt Q9Z2L0)
Sequence (Q9Z2L0 2-283): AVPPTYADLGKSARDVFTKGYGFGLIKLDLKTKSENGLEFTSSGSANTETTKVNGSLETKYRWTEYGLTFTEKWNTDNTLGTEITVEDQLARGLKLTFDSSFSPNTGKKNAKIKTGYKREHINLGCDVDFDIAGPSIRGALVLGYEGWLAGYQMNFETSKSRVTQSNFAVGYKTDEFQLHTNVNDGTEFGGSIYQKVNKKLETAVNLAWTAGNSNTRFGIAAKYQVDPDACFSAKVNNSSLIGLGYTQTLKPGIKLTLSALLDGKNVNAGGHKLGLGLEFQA

## yeast HK
  PTP opening (swelling of energized mitochondria): The failure of non-binding species of HK, such as yeast HK, or trypsin- or chymotrypsin-treated HK-I (FIG. 2D) to prevent PTP opening
